Paper PMC3401449 (Nucleic Acids Research, 2012)

Biological target: T1, His-tagged, wild-type DNA polymerase IV (Pol IV) (Escherichia coli, UniProt Q47155 1-351)
T1 sequence (looked up): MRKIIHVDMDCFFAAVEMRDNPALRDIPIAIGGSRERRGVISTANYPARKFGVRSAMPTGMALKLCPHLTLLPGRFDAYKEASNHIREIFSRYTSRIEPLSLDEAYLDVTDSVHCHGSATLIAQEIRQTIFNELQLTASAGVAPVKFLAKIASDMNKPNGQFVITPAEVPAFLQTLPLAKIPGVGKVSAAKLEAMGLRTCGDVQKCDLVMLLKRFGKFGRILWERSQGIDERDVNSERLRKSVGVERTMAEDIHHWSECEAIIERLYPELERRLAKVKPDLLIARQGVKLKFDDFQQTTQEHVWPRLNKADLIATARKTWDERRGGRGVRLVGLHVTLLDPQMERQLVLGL
Experiment: pull-down

B1: SSB-Ct peptide (Trp–Met–Asp–Phe–Asp–Asp–Asp–Ile–Pro–Phe) (peptide)
peptide: WMDFDDDIPF
  binding result: binds
